The assay concerns the target 3nv.2 SOSIP Env trimer (HIV-1 (clade C strain 426c)). Put plainly: cryo-EM structure; single-particle cryo-EM of unliganded 3nv.2 SOSIP Env, from a sample incubated with polyclonal Fabs and purified by SEC in TBS; 2D class averages and 3D map, C1 or C3 symmetry.

As a reminder, the stoichiometry N is a count of units in the complex or per binding partner. 3nv.2 SOSIP Env trimer registered a stoichiometry N of 3.

The values are drawn from paper PMC12341506.
